These are literature values, as cited in patent US5405946A, “Recombinant protein S variants deficient in C4BP binding activity, compositions and therapeutic methods” (The Scripps Research Institute, priority 1992, dated 1995).

The data set addresses T1, C4BP (Homo sapiens, UniProt P20851).
T1 sequence (P20851 18-252): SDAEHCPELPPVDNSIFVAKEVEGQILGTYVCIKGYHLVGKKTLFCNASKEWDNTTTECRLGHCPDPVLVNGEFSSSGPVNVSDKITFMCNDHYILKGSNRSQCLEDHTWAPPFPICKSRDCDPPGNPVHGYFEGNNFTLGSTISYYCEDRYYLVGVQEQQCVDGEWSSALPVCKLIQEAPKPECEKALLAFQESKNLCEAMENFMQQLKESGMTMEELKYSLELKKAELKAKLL
T1 sequence (P04003 49-597 partner): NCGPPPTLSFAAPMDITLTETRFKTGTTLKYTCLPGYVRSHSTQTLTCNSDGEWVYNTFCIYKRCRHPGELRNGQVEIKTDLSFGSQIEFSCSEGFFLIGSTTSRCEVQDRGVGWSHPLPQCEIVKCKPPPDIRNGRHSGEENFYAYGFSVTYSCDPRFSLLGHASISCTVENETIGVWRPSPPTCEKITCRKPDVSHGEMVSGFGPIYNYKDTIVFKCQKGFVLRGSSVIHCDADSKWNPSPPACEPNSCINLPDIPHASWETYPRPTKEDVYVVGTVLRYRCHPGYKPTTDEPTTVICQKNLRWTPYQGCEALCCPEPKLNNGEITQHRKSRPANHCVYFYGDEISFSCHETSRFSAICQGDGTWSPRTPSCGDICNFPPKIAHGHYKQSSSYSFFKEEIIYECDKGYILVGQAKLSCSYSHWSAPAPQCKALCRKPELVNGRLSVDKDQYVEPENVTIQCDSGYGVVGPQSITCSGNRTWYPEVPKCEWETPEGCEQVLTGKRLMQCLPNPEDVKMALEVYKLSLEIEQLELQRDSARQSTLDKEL
The settings on record: PS association with C4BP in plasma; read-out: dissociation constant; cited from earlier work.

As to “PS: vitamin K-dependent protein of 75,000 molecular weight with 635 amino acid residues”, the Kd is 1 to 5 nM.
